Blank lines part the entries; values can stand above or below the substance they belong to.
Columns and labels:
[1] = biological target: sialylated IgG1 GA (G236A) Fc (human); test: SPR
[2] = biological target: sialylated IgG1 V11 (G237D, P238D, H268D, P271G, A330R) Fc (human); test: SPR

- fold change in affinity against WT sFc [1]: 10 fold
Substance: FcγRIIA (CD32a), variant not named in the sentence (from UniProt P12318 34-317) (receptor)

- fold weaker affinity against WT sFc [2]: 193 fold
Substance: FcγRIA (CD64) (from UniProt P12314 16-374) (receptor)

- fold change in affinity against WT sFc [2]: 37 fold
Substance: FcγRIIB (CD32b), as used in SPR with Fc proteins (from UniProt P31994 43-310) (receptor)
